The supplement of paper PMC5998384

Legend:
[1] = system: HeLa Kyoto; test: melting temperature (median over replicates), in situ; higher = more thermally stable
[2] = system: HeLa Kyoto; test: solubility in G1/S (NP-40 vs SDS abundance) (log2 ratio); higher = more soluble; conditions: cell cycle stage: G1/S
[3] = system: HeLa Kyoto; test: solubility change mitosis vs G1/S (difference of NP-40 vs SDS log2 ratios) (log2 ratio difference); higher = more soluble in mitosis
[4] = system: HeLa Kyoto; test: thermal stability score vs G1/S (z-score of summed log2 fold changes over temperatures); higher = more thermally stable than in G1/S
[5] = cell cycle stage: early G1 (4.5 h after nocodazole release)
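For melting temperature (median over replicates), in situ in this document: HeLa Kyoto cells synchronized by double thymidine or nocodazole block, proteins quantified by TMT10plex mass spectrometry, three independent biological replicates.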
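For solubility change mitosis vs G1/S (difference of NP-40 vs SDS log2 ratios) in this document: synchronized HeLa Kyoto cells (double thymidine block for G1/S, nocodazole release for mitosis), protein amounts in NP-40 versus SDS lysates quantified by mass spectrometry, three biological replicates.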
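For solubility in G1/S (NP-40 vs SDS abundance) in this document: HeLa Kyoto cells arrested at G1/S by double thymidine block, proteins quantified by TMT10plex mass spectrometry in mild NP-40 versus SDS extracts, three biological replicates.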
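For thermal stability score vs G1/S (z-score of summed log2 fold changes over temperatures) in this document: synchronized HeLa Kyoto cells, proteins quantified by TMT10plex mass spectrometry, three biological replicates, mitosis taken 0.5 h after nocodazole release, G1/S directly after double thymidine block.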

Sequence | melting temperature ([1]; cell cycle stage: G1/S) [°C] | melting temperature ([1]; cell cycle stage: mitosis) [°C] | solubility in G1/S (log2) [2] | solubility change mitosis (log2) [3] | thermal stability score [4, 5] | thermal stability score ([4]; cell cycle stage: mitosis)
MEEDTDYRIRFSSLCFFNDHVGFHGTIKSSPSDFIVIEIDEQGQLVNKTIDEPIFKISEIQLEPNNFPKKPKLDLQNLSLEDGRNQEVHTLIKYTDGDQNHQSGSEKEDTIVDGTSKCEEKADVLSSFLDEKTHELLNNFACDVREKWLSKTELIGLPPEFSIGRILDKNQRASLHSAIRQKFPFLVTVGKNSEIVVKPNLEYKELCHLVSEEEAFDFFKYLDAKKENSKFTFKPDTNKDHRKAVHHFVNKKFGNLVETKSFSKMNCSAGNPNVVVTVRFREKAHKRGKRPLSECQEGKVIYTAFTLRKENLEMFEAIGFLAIKLGVIPSDFSYAGLKDKKAITYQAMVVRKVTPERLKNIEKEIEKKRMNVFNIRSVDDSLRLGQLKGNHFDIVIRNLKKQINDSANLRERIMEAIENVKKKGFVNYYGPQRFGKGRKVHTDQIGLALLKNEMMKAIKLFLTPEDLDDPVNRAKKYFLQTEDAKGTLSLMPEFKVRERALLEALHRFGMTEEGCIQAWFSLPHSMRIFYVHAYTSKIWNEAVSYRLETYGARVVQGDLVCLDEDIDDENFPNSKIHLVTEEEGSANMYAIHQVVLPVLGYNIQYPKNKVGQWYHDILSRDGLQTCRFKVPTLKLNIPGCYRQILKHPCNLSYQLMEDHDIDVKTKGSHIDETALSLLISFDLDASCYATVCLKEIMKHDV [PUS7L] | 51 | 51.9 | -0.0836 | -0.137 | 0.23 | 0.98
MEEGGNLGGLIKMVHLLVLSGAWGMQMWVTFVSGFLLFRSLPRHTFGLVQSKLFPFYFHISMGCAFINLCILASQHAWAQLTFWEASQLYLLFLSLTLATVNARWLEPRTTAAMWALQTVEKERGLGGEVPGSHQGPDPYRQLREKDPKYSALRQNFFRYHGLSSLCNLGCVLSNGLCLAGLALEIRSL [TMEM205] |  | 55.9 | 0.0662 | -0.294 | -2.96 | -1.84
MEEGHGLDLTYITERIIAVSFPAGCSEESYLHNLQEVTRMLKSKHGDNYLVLNLSEKRYDLTKLNPKIMDVGWPELHAPPLDKMCTICKAQESWLNSNLQHVVVIHCRGGKGRIGVVISSYMHFTNVSASADQALDRFAMKKFYDDKVSALMQPSQKRYVQFLSGLLSGSVKMNASPLFLHFVILHGTPNFDTGGVCRPFLKLYQAMQPVYTSGIYNVGPENPSRICIVIEPAQLLKGDVMVKCYHKKYRSATRDVIFRLQFHTGAVQGYGLVFGKEDLDNASKDDRFPDYGKVELVFSATPEKIQGSEHLYNDHGVIVDYNTTDPLIRWDSYENLSADGEVLHTQGPVDGSLYAKVRKKSSSDPGIPGGPQAIPATNSPDHSDHTLSVSSDSGHSTASARTDKTEERLAPGTRRGLSAQEKAELDQLLSGFGLEDPGSSLKEMTDARSKYSGTRHVVPAQVHVNGDAALKDRETDILDDEMPHHDLHSVDSLGTLSSSEGPQSAHLGPFTCHKSSQNSLLSDGFGSNVGEDPQGTLVPDLGLGMDGPYERERTFGSREPKQPQPLLRKPSVSAQMQAYGQSSYSTQTWVRQQQMVVAHQYSFAPDGEARLVSRCPADNPGLVQAQPRVPLTPTRGTSSRVAVQRGVGSGPHPPDTQQPSPSKAFKPRFPGDQVVNGAGPELSTGPSPGSPTLDIDQSIEQLNRLILELDPTFEPIPTHMNALGSQANGSVSPDSVGGGLRASSRLPDTGEGPSRATGRQGSSAEQPLGGRLRKLSLGQYDNDAGGQLPFSKCAWGKAGVDYAPNLPPFPSPADVKETMTPGYPQDLDIIDGRILSSKESMCSTPAFPVSPETPYVKTALRHPPFSPPEPPLSSPASQHKGGREPRSCPETLTHAVGMSESPIGPKSTMLRADASSTPSFQQAFASSCTISSNGPGQRRESSSSAERQWVESSPKPMVSLLGSGRPTGSPLSAEFSGTRKDSPVLSCFPPSELQAPFHSHELSLAEPPDSLAPPSSQAFLGFGTAPVGSGLPPEEDLGALLANSHGASPTPSIPLTATGAADNGFLSHNFLTVAPGHSSHHSPGLQGQGVTLPGQPPLPEKKRASEGDRSLGSVSPSSSGFSSPHSGSTISIPFPNVLPDFSKASEAASPLPDSPGDKLVIVKFVQDTSKFWYKADISREQAIAMLKDKEPGSFIVRDSHSFRGAYGLAMKVATPPPSVLQLNKKAGDLANELVRHFLIECTPKGVRLKGCSNEPYFGSLTALVCQHSITPLALPCKLLIPERDPLEEIAESSPQTAANSAAELLKQGAACNVWYLNSVEMESLTGHQAIQKALSITLVQEPPPVSTVVHFKVSAQGITLTDNQRKLFFRRHYPVNSVIFCALDPQDRKWIKDGPSSKVFGFVARKQGSATDNVCHLFAEHDPEQPASAIVNFVSKVMIGSPKKV [TNS3] | 48 | 49.8 | 0.127 | -0.126 | 1.68 | 3.85
MEEKLKKTKIIFVVGGPGSGKGTQCEKIVQKYGYTHLSTGDLLRSEVSSGSARGKKLSEIMEKGQLVPLETVLDMLRDAMVAKVNTSKGFLIDGYPREVQQGEEFERRIGQPTLLLYVDAGPETMTQRLLKRGETSGRVDDNEETIKKRLETYYKATEPVIAFYEKRGIVRKVNAEGSVDSVFSQVCTHLDALK [AK1] | 50.4 | 51 | 0.524 | -0.0547 | 1.73 | 1.88
MEETMKLATMEDTVEYCLFLIPDESRDSDKHKEILQKYIERIITRFAPMLVPYIWQNQPFNLKYKPGKGGVPAHMFGVTKFGDNIEDEWFIVYVIKQITKEFPELVARIEDNDGEFLLIEAADFLPKWLDPENSTNRVFFCHGELCIIPAPRKSGAESWLPTTPPTIPQALNIITAHSEKILASESIRAAVNRRIRGYPEKIQASLHRAHCFLPAGIVAVLKQRPRLVAAAVQAFYLRDPIDLRACRVFKTFLPETRIMTSVTFTKCLYAQLVQQRFVPDRRSGYRLPPPSDPQYRAHELGMKLAHGFEILCSKCSPHFSDCKKSLVTASPLWASFLESLKKNDYFKGLIEGSAQYRERLEMAENYFQLSVDWPESSLAMSPGEEILTLLQTIPFDIEDLKKEAANLPPEDDDQWLDLSPDQLDQLLQEAVGKKESESVSKEEKEQNYDLTEVSESMKAFISKVSTHKGAELPREPSEAPITFDADSFLNYFDKILGPRPNESDSDDLDDEDFECLDSDDDLDFETHEPGEEASLKGTLDNLKSYMAQMDQELAHTCISKSFTTRNQVEPVSQTTDNNSDEEDSGTGESVMAPVDVDLNLVSNILESYSSQAGLAGPASNLLQSMGVQLPDNTDHRPTSKPTKN [ECD] | 50.8 | 50 | 0.116 | -0.113 | 0.346 | 0.595
